The values that follow come from publication PMC6305486.

The target in experiment [1] is GST-fused e5-FtsB_(25–103) E68A/k5-FtsL_(64–121) complex (E. coli) (UniProt P0A6S5). As to the kind of experiment: BLI; BLItz; GST-fused FtsB proteins or GST-e5-FtsB/k5-FtsL complexes immobilised on AR2G biosensor by amine coupling; FtsQ_(50–276) (WT or Y248A) in solution, 0.1–80 μM; running buffer 20 mM Tris-HCl pH 8.0, 200 mM NaCl; equilibrium analysis of points at 100 s.

Experiment [2] deals with GST-fused e5-FtsB_(25–103)/k5-FtsL_(64–121) complex (WT) (E. coli) (UniProt P0A6S5). The description is as above.
Experiment [3] addresses e5-FtsB_(25–103)/k5-FtsL_(64–121) complex (E. coli) (UniProt P0A6S5). Nature of the experiment: SEC; analytical gel filtration, Superdex 200 10/300 GL, buffer B (20 mM Tris-HCl pH 8.0, 200 mM NaCl), 0.5 mL/min; high concentrations (101–370 μM); apparent Stokes radius compared with radii calculated from models.
The target is the same in experiment [4]. As to the kind of experiment: SEC; analytical gel filtration, Superdex 200 10/300 GL, buffer B (20 mM Tris-HCl pH 8.0, 200 mM NaCl), 0.5 mL/min; low concentrations (6.8–22.2 μM); apparent Stokes radius compared with radii calculated from models.
In experiment [5] the target is FtsQ_(50–276) (UniProt P06136). Nature of the experiment: BLI. The note with it: GST-e5-FtsB (mutant) in complex with k5-FtsL immobilized; FtsQ analyte 0-80 µM; parent: 0.24 ± 0.01.
Sequence of FtsQ_(50–276) (UniProt P06136) (P06136 whole entry, looked up, tested part not stated): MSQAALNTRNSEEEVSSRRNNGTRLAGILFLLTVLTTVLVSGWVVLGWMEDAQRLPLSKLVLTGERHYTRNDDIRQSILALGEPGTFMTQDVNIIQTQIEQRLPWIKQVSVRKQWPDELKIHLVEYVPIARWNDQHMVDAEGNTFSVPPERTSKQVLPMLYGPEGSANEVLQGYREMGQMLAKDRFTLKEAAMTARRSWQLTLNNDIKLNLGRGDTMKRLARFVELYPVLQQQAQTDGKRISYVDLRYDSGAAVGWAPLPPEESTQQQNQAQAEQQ

Sequence of FtsQ_(50–276) (from UniProt P06136 50-276) (domain or fragment) (P06136 50-276): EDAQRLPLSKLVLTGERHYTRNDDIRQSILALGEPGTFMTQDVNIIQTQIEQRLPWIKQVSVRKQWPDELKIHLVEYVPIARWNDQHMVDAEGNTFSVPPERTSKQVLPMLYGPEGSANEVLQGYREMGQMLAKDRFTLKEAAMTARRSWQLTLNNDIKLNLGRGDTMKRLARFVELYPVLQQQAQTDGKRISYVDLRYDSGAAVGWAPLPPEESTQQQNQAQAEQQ

With “FtsQ_(50–276) (from UniProt P06136 50-276) (domain or fragment)”, the fold reduction of affinity against WT in experiment [1] was determined as 10 fold. This substance gave a Kd in experiment [2] of 0.24 µM. The stoichiometry N (FtsQ:FtsB:FtsL ratio (1:1:1)) in experiment [3] and in experiment [4] was 1 each time. The stoichiometry N (FtsQ:FtsB:FtsL ratio (2:2:2)) in experiment [3] and in experiment [4] was 1 throughout.
Turning to “GST-fused e5-FtsB_(25–103)/k5-FtsL_(64–121) complex (WT) (from UniProt P0A6S5;P0AEN4) E69R”, the Kd in experiment [5] is greater than 100 µM.
Regarding “GST-fused e5-FtsB_(25–103)/k5-FtsL_(64–121) complex (WT) (from UniProt P0A6S5;P0AEN4) E82R”, the Kd in experiment [5] is greater than 100 µM.
Still for that read-out and setting: then “GST-fused e5-FtsB_(25–103)/k5-FtsL_(64–121) complex (WT) (from UniProt P0A6S5;P0AEN4) R72E”, with greater than 100 µM.
